Results as given in publication PMC2199009.

What was measured:
[1] = molecular target: purified full length LFA-1 (lymphocyte function–associated antigen 1) (human (endogenous in JY)) (UniProt P20701); assay: adhesion in a parallel plate flow cell
[2] = molecular target: GPI-anchored form of the LFA-1 I domain (I-GPI), stably expressed on baby hamster kidney cells (UniProt P20701); assay: radioligand binding

Sequence of UniProt P20701 (P20701 26-1170, chain 1 of 2): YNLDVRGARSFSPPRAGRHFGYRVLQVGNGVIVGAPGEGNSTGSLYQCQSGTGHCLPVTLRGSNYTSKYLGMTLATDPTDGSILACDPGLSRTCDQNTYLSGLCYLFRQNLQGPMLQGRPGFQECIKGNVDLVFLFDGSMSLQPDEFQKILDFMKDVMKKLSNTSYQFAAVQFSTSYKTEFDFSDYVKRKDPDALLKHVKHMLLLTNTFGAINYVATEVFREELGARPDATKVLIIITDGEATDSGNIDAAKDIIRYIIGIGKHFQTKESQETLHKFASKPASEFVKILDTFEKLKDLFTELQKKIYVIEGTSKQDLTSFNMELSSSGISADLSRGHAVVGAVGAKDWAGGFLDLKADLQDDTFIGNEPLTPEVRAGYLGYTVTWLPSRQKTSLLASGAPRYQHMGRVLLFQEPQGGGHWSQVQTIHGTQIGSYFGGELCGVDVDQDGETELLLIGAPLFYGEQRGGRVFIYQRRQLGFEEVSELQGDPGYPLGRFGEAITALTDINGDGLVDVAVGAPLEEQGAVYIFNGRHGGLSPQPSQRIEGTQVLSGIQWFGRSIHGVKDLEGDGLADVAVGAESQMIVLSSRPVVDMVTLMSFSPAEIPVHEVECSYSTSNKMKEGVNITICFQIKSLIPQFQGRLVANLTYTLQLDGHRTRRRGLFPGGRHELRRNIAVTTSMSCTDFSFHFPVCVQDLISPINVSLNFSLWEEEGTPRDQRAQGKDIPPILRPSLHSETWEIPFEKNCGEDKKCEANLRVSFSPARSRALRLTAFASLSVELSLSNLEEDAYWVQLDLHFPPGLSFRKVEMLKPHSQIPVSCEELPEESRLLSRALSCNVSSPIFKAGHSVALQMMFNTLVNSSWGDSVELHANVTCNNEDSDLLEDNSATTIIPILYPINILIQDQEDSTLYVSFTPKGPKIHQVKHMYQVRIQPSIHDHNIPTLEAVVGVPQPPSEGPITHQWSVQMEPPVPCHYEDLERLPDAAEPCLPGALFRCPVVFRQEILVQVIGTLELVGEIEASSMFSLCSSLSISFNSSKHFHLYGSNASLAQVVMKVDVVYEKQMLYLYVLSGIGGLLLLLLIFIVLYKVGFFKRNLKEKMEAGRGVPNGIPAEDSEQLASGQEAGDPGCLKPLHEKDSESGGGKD
Sequence of UniProt P20701 (P05107 23-769, chain 2 of 2, further chain): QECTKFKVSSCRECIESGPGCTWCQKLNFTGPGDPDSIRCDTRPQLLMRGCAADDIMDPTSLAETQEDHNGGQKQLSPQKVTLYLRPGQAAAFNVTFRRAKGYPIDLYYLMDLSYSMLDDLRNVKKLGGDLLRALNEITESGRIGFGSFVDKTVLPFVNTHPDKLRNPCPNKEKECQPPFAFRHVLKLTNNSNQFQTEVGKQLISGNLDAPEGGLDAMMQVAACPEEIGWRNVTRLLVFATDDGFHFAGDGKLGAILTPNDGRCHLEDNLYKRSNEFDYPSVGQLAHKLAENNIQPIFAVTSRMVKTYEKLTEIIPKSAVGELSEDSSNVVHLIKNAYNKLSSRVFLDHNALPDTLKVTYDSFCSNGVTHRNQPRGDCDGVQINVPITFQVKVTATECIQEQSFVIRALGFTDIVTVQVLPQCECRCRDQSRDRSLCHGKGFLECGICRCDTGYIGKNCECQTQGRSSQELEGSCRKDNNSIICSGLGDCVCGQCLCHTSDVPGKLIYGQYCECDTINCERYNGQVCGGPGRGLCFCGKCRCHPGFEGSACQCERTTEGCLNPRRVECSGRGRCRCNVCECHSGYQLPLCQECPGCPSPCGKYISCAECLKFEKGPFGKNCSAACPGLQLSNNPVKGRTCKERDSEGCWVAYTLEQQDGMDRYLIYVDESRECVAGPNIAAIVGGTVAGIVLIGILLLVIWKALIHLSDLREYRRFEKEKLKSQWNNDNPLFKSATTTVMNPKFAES

Row | percent cells free [1] | percent cells rolling [1] | percent cells stable [1] | IC50 [2] | Substance
1 | 73% | 0% | 26% |  | ICAM-1 GPI on transfected baby hamster kidney cells (domain or fragment)
2 |  |  |  | 150 µM | soluble ICAM-1 (sICAM-1) (domain or fragment)
